# B1: recombinant Aspergillus oryzae alkaline protease expressed in Yarrowia lipolytica (strains OXYY2184 and OXYY2122), mature form with linker and His tag (protein)
# chain: GLTTQKSAPWGLGSISHKGQQSTDYIYDTSAGEGTYAYVVDSGVNVDHEEFEGRASKAYNAAGGQHVDSIGHGTHVSGTIAGKTYGIAKKASILSVKVFQGESSSTSVILDGFNWAANDIVSKKRTSKAAINMSLGGGYSKAFNDAVENAFEQGVLSVVAAGNENSDAGQTSPASAPDAITVAAIQKSNNRASFSNFGKVVDVFAPGQDILSAWIGSSSATNTISGTSMATPHIVGLSLYLAALENLDGPAAVTKRIKELATKDVVKDVKGSPNLLAYNGNASGGGHHHHHHHHHH
# Molecular target: recombinant human acid alpha glucosidase (rhGAA), 110 kDa precursor
protein,measurement,value
B1,processing of the 110 kDa rhGAA precursor in culture supernatant of the co-expressing strain OXYY2122 (SDS-PAGE and immunoblot),This processing was complete; no 110 kDa form was detected
same,"proteolysis of rhGAA to the 95 kDa form (weight:weight ratio 200:1 total protein:protease, 16 h at 30 C; SDS-PAGE)",resulted in a full proteolysis to the 95 kDa product

# Reference: patent publication US20130243746
